In the nanobody polyreactivity screen of Harvey et al. (2022):

Test: yeast display, Sf9 membrane polyspecificity reagent, FACS + sequencing; frameworks hold sequencing errors
In short: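 A synthetic nanobody library was expressed on Saccharomyces cerevisiae BJ5465 by galactose induction for 36–48 hours. The library was stained for 1 hour at 4 °C with 10% biotinylated, detergent-solubilized Sf9 membrane reagent and enriched with streptavidin microbeads before FACS. Low and high (top ~1%) gates were set on anti-HA fluorescence for expression and streptavidin fluorescence for reagent binding, and each polyreactivity label reflects the gate of origin.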

Row | Sequence | polyreactivity (PSR sort gate)
1 | QVQLVESGGGLVQAGGSLRLRCAASGNTFAYYAMGWYRQAPGKERELVASITGSGTSTYYADSVKGRFTISRDNEKNTVYLQMNSLKPEDTAVYYCAKRYYYKWFGYWGQGTQVTVSS | high polyreactivity
2 | QVQLVESGGGLVQAGGSLRLRCAASGNTFRVYPMGWYRQAPGKESELVAAITWSGSRTYYADSVKGRFTISRDNAKNTVYFQINSLKPEDTAVYYCAARFVRAAYNYWGLGTQVTVSS | high polyreactivity
3 | QVQLVESGGGLVQAGGSLRLRCAASGRIFNGYGMGWYRQAPGKERELVAAITWSGGGTYYADTVKGRFTISRDNAKNTVYLQRNSLKPEDTAVYYCAAYSSSYPDYDSWGQGTQVTVSS | low polyreactivity
4 | QVQLVESGGGLVQAGGSLRLRCAASGRIFRPYTMGWYRQAPGKERELVAGITSSGGGTYYADSVKGRFTISRDNAKNTVYLHMNSLKPEDSAVYYCNRRGWSRTHQYDYWGQGTQVTVSS | high polyreactivity
5 | QVQLVESGGGLVQAGGSLRLRCAASGRNFGDNRMGWYRQAPGKERELVTYAYSVKGRFTISRDNAKNTVYLQMNSLKPEDTSVYYCNTDPQRFSGLDENYWGQGTQVTVSS | low polyreactivity
6 | QVQLVESGGGLVQAGGSLRLRCAASGRTFARYAMGWYRQAPGKERELVAAISWSGGSTYYADSVKARFTISRDNAKNTVYLQMNSLKPVDTAVYYCAARRPTSPRRYESWGQGTQVTVSS | high polyreactivity
7 | QVQLVESGGGLVQAGGSLRLRCAASGRTFELYAMGWYRQAPGKERALVAAITASGGTTYYADSVKGRFTISRDNAKNTVYLQMNSLKPEDTAVYYCAAEYSYYPFTDYDYWGQGTQVSVSS | high polyreactivity
8 | QVQLVESGGGLVQAGGSLRLRCAASGRTFGQNAMGLYRQAPGKEREFVAAISSSGGSTYYADSVKGRFTISRDNAKNTVYLQMNSLKPEDTAVYYCNARQYYYRSGAYASRYLYNYWGQGTQVTVSS | high polyreactivity
9 | QVQLVESGGGLVQAGGSLRLRCAASGRTFQYNAMGWYRQAPGKESELVAANTSNGGSTYYADSVKGRFTISRDNAKNTVYLQMNSLNPEDTAVYYCAKAYRYVDRGYRLLRYGFWGQGTQVTVSS | high polyreactivity
10 | QVQLVESGGGLVQAGGSLRLRCAASGRTFRYYAMGWYRQAPGKEREVVAAITRSGGSTYYADSVKGRFTISRDNAKNTVYLQMNSLKPEDTAVYYCAASRFTSYGIDYDYCGQGTQVTVSS | high polyreactivity
11 | QVQLVESGGGLVQAGGSLRLRCAASGRTFYRYAMGWYRQAPGKERELVASINRGGSTNYADSVKGRFTISRDNAKNTVYLQMNSLKPEDTAVYYCACYCYCYWGQGTQVTVSS | low polyreactivity
12 | QVQLVESGGGLVQAGGSLRLRCAASGSIFEEYAMGWSRPAPGKERELVAAITSRGGSTYYADSVKGRFTISRDNAKNNVYLQMNSLKPEDTAVYYCAAGVASLTTGSYDYWGQGTQVTVSS | low polyreactivity
13 | QVQLVESGGGLVQAGGSLRLRCAASGSIFGPNALGWYRQAAGKERELVAAISSGGSTNYADSVKGRFTISRDNAKNTVYLQMNSLKPEDTAVYYCAKDNYLDPPYFYRFAGYDYRGQGTQVTVSS | low polyreactivity
14 | QVQLVESGGGLVQAGGSLRLRCAASGSIFQPYAMGWYRQAPGKERELVAAITNGGSTYYADSVKGRFTISRDNATNTVYLQMNSLKPEDTAVYYCAADVQSSHEYDYWGQGTQVTVSS | low polyreactivity
15 | QVQLVESGGGLVQAGGSLRLRCAASGSIFQSNAMGWYRPAPGKESELVAAISSSGVRTYYADSVKGRFTISRDNAKNTVYLQMNSLKPEDTAVYYCATGWYYAGGPTYEYYYWGQGTQVTVSS | low polyreactivity
16 | QVQLVESGGGLVQAGGSLRLRCAASGSIFSSNAMGWYRQAPGKERELVAAITSGGSTYYADSVKGRFTISRDNAKHTVYLQMNSLKPEDTAVYYCAADDWGDGVYKLDYWGQGTQVTVSS | low polyreactivity
17 | QVQLVESGGGLVQAGGSLRLRCAASGSIFTSYALGWYRQAPGKERELVAAINGSGGSTFYADSVKSRFTISRDNAKYTFYLQMNSLKPEDTAVYYCNTGGPRGTTYDFWGLGTQVTVSS | low polyreactivity
18 | QVQLVESGGGLVQAGGSLRLRCAASGSIFWRNAMGWYRQAPGKERELVAPISGNGGTTYYADSVKGRFTISRENAKNTVFLQMNSLKPEHTAVYYCPKVGKTYRTYEYWGQGTEVTVSS | high polyreactivity
19 | QVQLVESGGGLVQAGGSLRLRCAASGSIFYFYAMGWYRQAPGQEREFVAAITRSGGRTYYADSVKGRFTISRDNAKNTVYLQMNSLKPEDTAVYYCDAVPYDKRKGDYWGQGTQVTVSS | high polyreactivity
20 | QVQLVESGGGLVQAGGSLRLRCAASGSIITRYAMGWYRQAPGKERDLVAAITASGGRTYYADSVKGRFTISRDNAKNTVYFQMNSLKPEDTAVYYCNTFWRYTSQLPYDYWGQGTQVNVSS | high polyreactivity
21 | QVQLVESGGGLVQAGGSLRLRCAASGSNFVSYAMGSYRQAPGKERELVATITTSTGSTYADSVKGRFTISRDNAKNTVYLLMYSLKPEDTAVYYCAARYLPWLKYDFDSWGQGTQVTVSS | low polyreactivity
22 | QVQLVESGGGLVQAGGSLRLRCAASGSTFDGNAMGWYRQAPGKETELVAAITSGGSTNYADSVKGRFTISRDNANNTVYFQMYSLKPEDTAVYYCAAYTVSFSILYDYWGQGTQVTLSS | low polyreactivity

Row | Sequence | polyreactivity (PSR sort gate)
23 | QVQLVESGGGLVQAGGSLRLRCAASGSTFGGYAMGWYRQAPGKERELVAAIANGDRTNYADSVKGRFIISRDNAKNTVYLQMNSLKPEDTAVYYCNKDGPSYSSYDNWGQGTQVTVSS | low polyreactivity
24 | QVQLVESGGGLVQAGGSLRLRCAASGSTFGYYSMGWYRQAPGKEMELVAAISKSGGRTYYADSVKGRFTISRDTAKNTVYVQMNSLKPEDTAVYYCNKANGGDEVDYWGQGTQVTVSS | high polyreactivity
25 | QVQLVESGGGLVQAGGSLRLRCAASGSTFTKNAMGWYRQAPGKERELVAAISFTTGRTYYADSVKGRFTISRDNAKNTVYLQMNSLKPEDTAVYYCNKVYARSEQRGPVAGNYWGQGTQVTVSS | high polyreactivity
26 | QVQLVESGGGLVQAGGSLRLRCAASGSTILYYAMGWYRQAPGKERELVADIDWSGDSTYYADSVKRRFRISRDNAKNTVYFQMNSLKPEDTAVYYCAATQYYPVPYDYWGQGTQVTVSS | low polyreactivity
27 | QVQLVESGGGLVQAGGSLRLRCAASGSTSAYYAMGWYRQAPGKERELVAAISWSGGRTYSADSVKGRFTISRDNAKNTVYLQMNSLKPEDTAVYYCAARFWFTKGYDYWGQGTQVTVSS | high polyreactivity
28 | QVQLVESGGGLVQAGGSLRLRCAASGTTFSDNAMGWYRQAAGKERELVAAITSGGSTYYADSVKGRFTISRDNAKNTVYLQMNSLKPEDTAVYYCAADYWGQGTQVTVSS | low polyreactivity
29 | QVQLVESGGGLVQAGGSLRLRCADSGFTLDVYAMGWYRQAPGKERELVAATSRSAGSTYYADSVKGRFTSSRDNAKNTVYLQMNSLKPEETDVYYCGARYPPRFGVVRGYSYYHTSTYSWGQGTQVTVSS | high polyreactivity
30 | QVQLVESGGGLVQAGGSLRLRGAASGNTIRYYAMGWYRQAPGKERELVAAINSRGGTTSYADSVKGRFTISRDNAKNTVYLQMNSLKPEDTAVYYCNKYIRYPFKRYGYWGQGTQVTVSS | high polyreactivity
31 | QVQLVESGGGLVQAGGSLRLRSAASGRTFVPYHMGCYRQAPGKERELVADISSGDSTNYTDSVKGRFTISRDNAKNTVYLQMNSLKPEDTAVYFCAADLTYTMDHWGLGTQVTVSS | low polyreactivity
32 | QVQLVESGGGLVQAGGSLRLRSAATGRTYRLYAMGWYRQAPGKERELVAAITRGGRTNYADSVKGRFTISRDNAKNTVYLEMNSLKPEDTAVYYCAARYRLPIPGTQYEYWGQGTQVTVSS | low polyreactivity
33 | QVQLVESGGGLVQAGGSLRLSCAAAGFIFQYNGMGWYRQAPGKERELVAAITSSVNTYYADSVKGRFTISRDNAKNTVYLQMNSLKPEDTAVYYCNADDPDKSWGQGTQVTVSS | low polyreactivity
34 | QVQLVESGGGLVQAGGSLRLSCAAAGIIFTGYAMGWYRQAPGKERELVAAITASGGRTYYADSVKGRYTISRDNAKNTVYLQMNSLKPEDTAVYYCNAVPTVLRVLKYDYWGQGTQVTVSS | high polyreactivity
35 | QVQLVESGGGLVQAGGSLRLSCAAAGIISPFYAMGWYRQAPGKERELVADISTGGTTTYADSVKGRFTISRDNAKNTVYLQMNSLKPVDTAVYYCNAEVCLTYYWIVWASYDYWGQGTQVTVSS | low polyreactivity
36 | QVQLVESGGGLVQAGGSLRLSCAAAGLISIRILMGWYRQAPGKERELVAGITSTGSTSYADSVKGRFTSSRDNAKNTVYLQMNSLKPEDTAVYYCNTKGSRPGIWPTTSGYWGHGTQVTVSS | high polyreactivity
37 | QVQLVESGGGLVQAGGSLRLSCAAAGNTIRVNAMGWYRHAHGKERELVAAISFSGGRTYYADSVKGRFTISRDNAKNTVYLQMNSLKPEDTAVYYCAALRRYPRPNIYGYWGQGTQVTVSS | low polyreactivity
38 | QVQLVESGGGLVQAGGSLRLSCAAAGRTFYNYAMGWYRQAPGKERELVAAIDWGSDSTYYADSVKGRFTISRDNAKNTVYLQMNSLKPEDTAVYYCAKRPKNKPVLGDYDHWGQGTQVTVSS | low polyreactivity
39 | QVQLVESGGGLVQAGGSLRLSCAAAGSTFRYNDMGWYRQAPGKERELVAAITRSGGSTYYADSVKGRFTISRDTAKNTVYLQMNSLKPEDTAVYYCNRGLRYVLAEDIAVPRVPEYYWGQGTQVTVSS | low polyreactivity
40 | QVQLVESGGGLVQAGGSLRLSCAACGFIFYINTMGWYRQAPGKERELVAAISQSGVGTSYADSVKGRFTISRDNAKNTVYLQMNSLKPEDTAVYDCATDFARSDVVDRFAYWRQGTQVTVSS | low polyreactivity
41 | QVQLVESGGGLVQAGGSLRLSCAACGFSFWRNAMGRTRRAPGKDRELVAAISASGGSTYYADSVKGRFTISRDNATNTVFLQRNSLKPEDTAVYYCAADTQGFYRYDYWGQGTQVTVSS | low polyreactivity
42 | QVQLVESGGGLVQAGGSLRLSCAACGRTFFPYAIGWYRQAPGKERELVAAITTGDITNYADSVKGRFTISRDNAKNTVYLQMNSLKPEDTAVNYCAARGYASWSYGGYPLKLDYWGQGTQVTVSS | low polyreactivity
43 | QVQLVESGGGLVQAGGSLRLSCAACGSIVVGYAMGWYRQAPGKERELVAVITSDGSTNYADSVKGRFTISRDNAKHTVYLPMNSLKPEDTAVYYCAADPWLGTGRYDYWGQGTQVTVST | low polyreactivity
